In paper PMC4755027:

Molecular target: Human TLR4 on HEK-Blue reporter cells (human) (UniProt O00206)
Details: scale: absorbance at 640 nm

UniProt O00206, sequence (O00206 24-839): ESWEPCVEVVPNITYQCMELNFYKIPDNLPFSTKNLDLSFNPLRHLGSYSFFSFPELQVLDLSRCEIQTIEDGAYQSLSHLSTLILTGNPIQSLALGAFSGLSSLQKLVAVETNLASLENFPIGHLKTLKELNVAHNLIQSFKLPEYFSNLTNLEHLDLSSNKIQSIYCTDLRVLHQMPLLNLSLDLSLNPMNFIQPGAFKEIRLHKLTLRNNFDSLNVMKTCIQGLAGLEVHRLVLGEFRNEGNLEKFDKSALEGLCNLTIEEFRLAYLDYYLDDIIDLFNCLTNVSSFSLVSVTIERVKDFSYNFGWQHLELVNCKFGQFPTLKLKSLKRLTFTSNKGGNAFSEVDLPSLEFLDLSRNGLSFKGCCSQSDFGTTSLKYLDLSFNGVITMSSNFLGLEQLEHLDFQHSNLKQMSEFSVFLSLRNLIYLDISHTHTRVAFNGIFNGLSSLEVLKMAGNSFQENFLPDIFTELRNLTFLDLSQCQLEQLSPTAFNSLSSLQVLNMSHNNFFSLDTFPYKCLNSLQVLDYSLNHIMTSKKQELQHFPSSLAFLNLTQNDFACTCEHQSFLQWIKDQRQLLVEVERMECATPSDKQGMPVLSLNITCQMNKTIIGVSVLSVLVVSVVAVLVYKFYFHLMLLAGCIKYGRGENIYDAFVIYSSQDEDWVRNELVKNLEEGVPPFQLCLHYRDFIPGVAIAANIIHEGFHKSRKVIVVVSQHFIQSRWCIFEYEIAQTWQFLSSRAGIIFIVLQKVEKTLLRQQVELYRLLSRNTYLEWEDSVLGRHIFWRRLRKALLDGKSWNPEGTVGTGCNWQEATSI

| Substance | secreted alkaline phosphatase of HEK-Blue human TLR4 reporter cells, absorbance at 640 nm normalized to media controls, mean of three experiments; significantly superior to equimolar ANXA2t | secreted alkaline phosphatase of HEK-Blue human TLR4 reporter cells, absorbance at 640 nm normalized to media controls, mean of three experiments |
| --- | --- | --- |
| Human monomeric annexin A2 (from UniProt P07355 1-339) (natural protein) | 2.7 |  |
| Bovine annexin A2 heterotetramer (from UniProt P04272 1-339; P60902 1-97) (complex) |  | 1.7 |
